Experimental data: patent publication US9181310B2 (priority 2003, dated 2015)

Legend:
[1] = system: X. oryzae and X. oryzicola; type: in vivo; details: transgenic rice, pIPG787
[2] = system: R. solanacearum strain Rsp446; type: in vivo, Ralstonia solanacearum; details: seeded T1 tobacco, three experiments each, 60 days

B1: BombBC: Bacteriophage Outer Membrane Breaching protein of Xanthomonas phage P15 (Xp15) ORF BC, 17.9 kD, SEQ ID NO. 17 (protein, listed as Xanthomonas campestris)
chain: MSDQTDTTQTTPAEKAPPKEIIRGRMPIAVVALARFGSQSTTTTKAAADALGTTVGKIDDIRKNRNFAYVTADFKPTEAQKADGIEWLKRHPVGADALIEELQNLPVATAEESAAFEQVRASARGQNAKTAEGEVAQAGGGNRRKKKEKPAEAGEVQNPPAADGDSLLS
For B1, the “resistance to Gram-negative bacterial pathogens” value [1] was “will be resistant” and the “resistance conferred to transgenic tobacco” value [2] was “strong resistance”.
